In paper PMC3877283, “Development of Novel Radiogallium-Labeled Bone Imaging Agents Using Oligo-Aspartic Acid Peptides as Carriers” (PLoS ONE, 2013):
Where two headings read alike, the source gives them in different places. Peptide text beside a SMILES is read from it. * marks the point of attachment. DOTA = O=C(O)CN1CCN(CC(=O)O)CCN(CC(=O)*)CCN(CC(=O)O)CC1

Test: Biodistribution experiments in normal mice
Type: in vivo, ddY mice
Conditions: for F/B ratio (Femur:blood ratio) / tissue uptake dose at 1 h / tissue uptake dose at 3 h / tissue uptake dose at 10 min: male ddY mice, no pretreatment, mean (SD) for four or five animals
Method: Experiments with animals were conducted in strict accordance with the Guidelines for the Care and Use of Laboratory Animals of Kanazawa University. The animal experimental protocols used were approved by the Committee on Animal Experimentation of Kanazawa University (Permit Number: AP-132633). Biodistribution experiments were performed after an intravenous administration of each diluted tracer solution (37 kBq/100 µL) to 6-week-old male ddY mice (27–32 g, Japan SLC, Inc., Hamamatsu, Japan). To investigate the effect of an excess amount of bisphosphonate on biodistribution, alendronate (20 mg/kg) was intravenously administered to mice 1 minute before the intravenous injection of ^67Ga-DOTA-(Asp)14 or ^67Ga-DOTA-Bn-SCN-HBP. Four to six mice each were sacrificed by decapitation at 10, 60, and 180 minutes post-injection. Tissues of interest were removed and weighed. Complete left femurs were isolated as representative bone samples, radioactivity was determined using an auto well gamma counter, and counts were corrected for background radiation and physical decay during counting.

O=C(O)C[C@H](NC(=O)[C@H](CC(=O)O)NC(=O)[C@H](CC(=O)O)NC(=O)[C@H](CC(=O)O)NC(=O)[C@H](CC(=O)O)NC(=O)[C@H](CC(=O)O)NC(=O)[C@H](CC(=O)O)NC(=O)[C@H](CC(=O)O)NC(=O)[C@H](CC(=O)O)NC(=O)[C@H](CC(=O)O)NC(=O)[C@H](CC(=O)O)NC(=O)[C@H](CC(=O)O)NC(=O)[C@H](CC(=O)O)NC(=O)[C@H](CC(=O)O)NC(=O)CN1CCN(CC(=O)O)CCN(CC(=O)O)CCN(CC(=O)O)CC1)C(=O)O [67Ga-DOTA-(Asp)14, metal not drawn] ({DOTA}-DDDDDDDDDDDDDD-OH)
F/B ratio (Femur:blood ratio) (10 min after i.v. administration): 6.27 (0.66)
F/B ratio (Femur:blood ratio) (60 min after i.v. administration): 185.54 (46.89)
F/B ratio (Femur:blood ratio) (180 min after i.v. administration): 591.08 (221.41)
tissue uptake dose at 1 h (male, ddY, mouse, in vivo, iv, 37 kBq/100 uL, total radioactivity, Blood, 60 min after i.v. administration, read-out: Radioactivity in Blood): 0.07 %ID
tissue uptake dose at 3 h (male, ddY, mouse, in vivo, iv, 37 kBq/100 uL, total radioactivity, Blood, 180 min after i.v. administration, read-out: Radioactivity in Blood): 0.03 %ID
tissue uptake dose at 10 min (male, ddY, mouse, in vivo, iv, 37 kBq/100 uL, total radioactivity, Bone (complete left femur), 10 min after i.v. administration, read-out: Radioactivity in Bone (Femur)): 10.1 %ID
tissue uptake dose at 1 h (male, ddY, mouse, in vivo, iv, 37 kBq/100 uL, total radioactivity, Bone (complete left femur), 60 min after i.v. administration, read-out: Radioactivity in Bone (Femur)): 12.8 %ID
tissue uptake dose at 3 h (male, ddY, mouse, in vivo, iv, 37 kBq/100 uL, total radioactivity, Bone (complete left femur), 180 min after i.v. administration, read-out: Radioactivity in Bone (Femur)): 13.3 %ID
tissue uptake dose at 10 min (male, ddY, mouse, in vivo, iv, 37 kBq/100 uL, total radioactivity, Brain, 10 min after i.v. administration, read-out: Radioactivity in Brain): 0.05 %ID
tissue uptake dose at 1 h (male, ddY, mouse, in vivo, iv, 37 kBq/100 uL, total radioactivity, Brain, 60 min after i.v. administration, read-out: Radioactivity in Brain): 0.01 %ID
tissue uptake dose at 3 h (male, ddY, mouse, in vivo, iv, 37 kBq/100 uL, total radioactivity, Brain, 180 min after i.v. administration, read-out: Radioactivity in Brain): 0.01 %ID
tissue uptake dose at 10 min (male, ddY, mouse, in vivo, iv, 37 kBq/100 uL, total radioactivity, Heart, 10 min after i.v. administration, read-out: Radioactivity in Heart): 0.62 %ID
tissue uptake dose at 1 h (male, ddY, mouse, in vivo, iv, 37 kBq/100 uL, total radioactivity, Heart, 60 min after i.v. administration, read-out: Radioactivity in Heart): 0.06 %ID
tissue uptake dose at 3 h (male, ddY, mouse, in vivo, iv, 37 kBq/100 uL, total radioactivity, Heart, 180 min after i.v. administration, read-out: Radioactivity in Heart): 0.03 %ID
tissue uptake dose at 10 min (male, ddY, mouse, in vivo, iv, 37 kBq/100 uL, total radioactivity, Kidney, 10 min after i.v. administration, read-out: Radioactivity in Kidney): 12.4 %ID
tissue uptake dose at 1 h (male, ddY, mouse, in vivo, iv, 37 kBq/100 uL, total radioactivity, Kidney, 60 min after i.v. administration, read-out: Radioactivity in Kidney): 0.99 %ID
tissue uptake dose at 3 h (male, ddY, mouse, in vivo, iv, 37 kBq/100 uL, total radioactivity, Kidney, 180 min after i.v. administration, read-out: Radioactivity in Kidney): 0.76 %ID
tissue uptake dose at 10 min (male, ddY, mouse, in vivo, iv, 37 kBq/100 uL, total radioactivity, Large-intestine, 10 min after i.v. administration, read-out: Radioactivity in Large-intestine): 0.3 %ID
tissue uptake dose at 1 h (male, ddY, mouse, in vivo, iv, 37 kBq/100 uL, total radioactivity, Large-intestine, 60 min after i.v. administration, read-out: Radioactivity in Large-intestine): 0.04 %ID
tissue uptake dose at 3 h (male, ddY, mouse, in vivo, iv, 37 kBq/100 uL, total radioactivity, Large-intestine, 180 min after i.v. administration, read-out: Radioactivity in Large-intestine): 0.15 %ID
tissue uptake dose at 10 min (male, ddY, mouse, in vivo, iv, 37 kBq/100 uL, total radioactivity, Liver, 10 min after i.v. administration, read-out: Radioactivity in Liver): 0.39 %ID
tissue uptake dose at 1 h (male, ddY, mouse, in vivo, iv, 37 kBq/100 uL, total radioactivity, Liver, 60 min after i.v. administration, read-out: Radioactivity in Liver): 0.05 %ID
tissue uptake dose at 3 h (male, ddY, mouse, in vivo, iv, 37 kBq/100 uL, total radioactivity, Liver, 180 min after i.v. administration, read-out: Radioactivity in Liver): 0.05 %ID
tissue uptake dose at 10 min (male, ddY, mouse, in vivo, iv, 37 kBq/100 uL, total radioactivity, Lung, 10 min after i.v. administration, read-out: Radioactivity in Lung): 1.19 %ID
tissue uptake dose at 1 h (male, ddY, mouse, in vivo, iv, 37 kBq/100 uL, total radioactivity, Lung, 60 min after i.v. administration, read-out: Radioactivity in Lung): 0.08 %ID
tissue uptake dose at 3 h (male, ddY, mouse, in vivo, iv, 37 kBq/100 uL, total radioactivity, Lung, 180 min after i.v. administration, read-out: Radioactivity in Lung): 0.03 %ID
tissue uptake dose at 10 min (male, ddY, mouse, in vivo, iv, 37 kBq/100 uL, total radioactivity, Muscle, 10 min after i.v. administration, read-out: Radioactivity in Muscle): 0.57 %ID
tissue uptake dose at 1 h (male, ddY, mouse, in vivo, iv, 37 kBq/100 uL, total radioactivity, Muscle, 60 min after i.v. administration, read-out: Radioactivity in Muscle): 0.08 %ID
tissue uptake dose at 3 h (male, ddY, mouse, in vivo, iv, 37 kBq/100 uL, total radioactivity, Muscle, 180 min after i.v. administration, read-out: Radioactivity in Muscle): 0.05 %ID
tissue uptake dose at 10 min (male, ddY, mouse, in vivo, iv, 37 kBq/100 uL, total radioactivity, Pancreas, 10 min after i.v. administration, read-out: Radioactivity in Pancreas): 0.5 %ID
tissue uptake dose at 1 h (male, ddY, mouse, in vivo, iv, 37 kBq/100 uL, total radioactivity, Pancreas, 60 min after i.v. administration, read-out: Radioactivity in Pancreas): 0.07 %ID
tissue uptake dose at 3 h (male, ddY, mouse, in vivo, iv, 37 kBq/100 uL, total radioactivity, Pancreas, 180 min after i.v. administration, read-out: Radioactivity in Pancreas): 0.03 %ID
tissue uptake dose at 10 min (male, ddY, mouse, in vivo, iv, 37 kBq/100 uL, total radioactivity, Small-intestine, 10 min after i.v. administration, read-out: Radioactivity in Small-intestine): 0.38 %ID
tissue uptake dose at 1 h (male, ddY, mouse, in vivo, iv, 37 kBq/100 uL, total radioactivity, Small-intestine, 60 min after i.v. administration, read-out: Radioactivity in Small-intestine): 0.08 %ID
tissue uptake dose at 3 h (male, ddY, mouse, in vivo, iv, 37 kBq/100 uL, total radioactivity, Small-intestine, 180 min after i.v. administration, read-out: Radioactivity in Small-intestine): 0.05 %ID
tissue uptake dose at 10 min (male, ddY, mouse, in vivo, iv, 37 kBq/100 uL, total radioactivity, Spleen, 10 min after i.v. administration, read-out: Radioactivity in Spleen): 0.42 %ID
tissue uptake dose at 1 h (male, ddY, mouse, in vivo, iv, 37 kBq/100 uL, total radioactivity, Spleen, 60 min after i.v. administration, read-out: Radioactivity in Spleen): 0.07 %ID
tissue uptake dose at 3 h (male, ddY, mouse, in vivo, iv, 37 kBq/100 uL, total radioactivity, Spleen, 180 min after i.v. administration, read-out: Radioactivity in Spleen): 0.03 %ID
tissue uptake dose at 10 min (male, ddY, mouse, in vivo, iv, 37 kBq/100 uL, total radioactivity, Stomach (footnote b), 10 min after i.v. administration, read-out: Radioactivity in Stomach): 0.24 %ID
tissue uptake dose at 1 h (male, ddY, mouse, in vivo, iv, 37 kBq/100 uL, total radioactivity, Stomach (footnote b), 60 min after i.v. administration, read-out: Radioactivity in Stomach): 0.1 %ID
tissue uptake dose at 3 h (male, ddY, mouse, in vivo, iv, 37 kBq/100 uL, total radioactivity, Stomach (footnote b), 180 min after i.v. administration, read-out: Radioactivity in Stomach): 0.02 %ID
tissue uptake at 1 h (male, ddY, mouse, in vivo, iv, 37 kBq/100 uL, total radioactivity, 60 min after injection, mice, read-out: accumulation in bone): 12.8 ± 1.7 %ID/g
tissue uptake dose at 10 min (mouse, in vivo, iv, 37 kBq/100 uL, total radioactivity, Blood, 10 min after i.v. administration (37 kBq/100 µL), gamma counter, read-out: Radioactivity in Blood): 1.61 %ID
accumulation of radioactivity in the femur (in words) (normal mice, i.v.): higher accumulation
